From patent publication US20150004190A1 (INSTITUT NATIONAL DE LA SANTE ET DE LA RECHERCHE MEDICALE …, published 2015)

B1: 2F5 IgA2 (antibody, V domains shown)
VH: RITLKESGPPLVKPTQTLTLTCSFSGFSLSDFGVGVGWIRQPPGKALEWLAIIYSDDDKRYSPSLNTRLTITKDTSKNQVVLVMTRVSPVDTATYFCAHRRGPTTLFGVPIARGPVNAMDVWGQGITVTI
VL: ALQLTQSPSSLSASVGDRITITCRASQGVTSALAWYRQKPGSPPQLLIYDASSLESGVPSRFSGSGSGTEFTLTISTLRPEDFATYYCQQLHFYPHTFGGGTRVDVR
B2: 2F5 IgG1 (antibody, V domains shown)
VH: B1 VH
VL: B1 VL

What was measured:
Assay in all cases: cell-based or functional assay
[1] = biological target: HIV-1 JR-CSF envelope (on virions) (HIV-1 JR-CSF (clade B, R5 tropic), UniProt P20871 32-848)
[2] = biological target: T1, HIV-1 R5 tropic QH0692.42 envelope (on pseudovirus) (HIV-1 QH0692.42)
[3] = biological target: T1, HIV-1 R5 tropic QH0692.42 envelope (on …); remark: listed apart in the source

Binder	IC50 times lower than 2F5 IgG1, CEM-CCR5+ neutralization [1] [fold]	IC99 times lower than 2F5 IgG1, CEM-CCR5+ neutralization [1] [fold]	IC50 times lower than that of 2F5 IgG1, TZM-bl assay [2] [fold]	IC90 times lower than that of 2F5 IgG1, TZM-bl assay [2] [fold]	IC50%, neutralization of envelope pseudotyped HIV-1 in TZM-bl assay (luciferase) [3] [nM]
B1	33	20	8.33	23.8	0.024
B2					0.2
